The supplement of paper PMC7125110
± gives the standard error. Fewer inactive variants are shown than the library holds.

B1: glmS ribozyme (parent)
chain: AUAAAAGCGCCAGAACUACAGAAAUGUAGUUGACGAGGAGGAGGUUUAUCGAAUUUUCGGCGGAUGCCUCCAAA

Legend:
Settings in all cases: with glucosamine-6-phosphate
glucosamine-6-phosphate [1] = variants of: B1; test: self-cleavage kobs at 40 uM GlcN6P; higher = faster cleavage; RNA array
Method in brief: (§1)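 Using a hybridised Cy3 probe at 37 °C, barcoded ribozyme variants transcribed in situ by E. coli RNA polymerase on sequenced MiSeq chips were monitored across tiles imaged over ~14 h. The flow contained glucosamine-6-phosphate from 40 μM to 10 mM in HEPES/KCl/Mg(OAc)2 buffer. Signals were normalised to baseline and to non-cleaving reference variants before per-tile medians were fit to one- or two-exponential decays to yield kobs. Weighted Michaelis–Menten fits across concentrations gave kcat and KM.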

glucosamine-6-phosphate [2] = variants of: B1; test: self-cleavage kobs at 640 uM GlcN6P; higher = faster cleavage; RNA array
Method in brief: as §1

glucosamine-6-phosphate [3] = variants of: B1; test: self-cleavage kobs at 2500 uM GlcN6P; higher = faster cleavage; RNA array
Method in brief: as §1

glucosamine-6-phosphate [4] = variants of: B1; test: self-cleavage kobs at 10000 uM GlcN6P; higher = faster cleavage; RNA array
Method in brief: as §1

glucosamine-6-phosphate [5] = variants of: B1; test: self-cleavage kobs at 160 uM GlcN6P; higher = faster cleavage; RNA array
Method in brief: as §1

Row | Variant | self-cleavage kobs at 40 uM GlcN6P (glucosamine-6-phosphate [1]) [s⁻¹] | self-cleavage kobs at 640 uM GlcN6P (glucosamine-6-phosphate [2]) [s⁻¹] | self-cleavage kobs at 2500 uM GlcN6P (glucosamine-6-phosphate [3]) [s⁻¹] | self-cleavage kobs at 10000 uM GlcN6P (glucosamine-6-phosphate [4]) [s⁻¹] | self-cleavage kobs at 160 uM GlcN6P (glucosamine-6-phosphate [5]) [s⁻¹]
1 | A36U C50U A52G C70G | 0.000113 ± 3.1e-05 | 0.000329 ± 7.9e-05 | 0.000173 ± 8.2e-05 | – | –
2 | G37U U65G G66U | < 1e-05 | – | – | – | –
3 | A36G G43A U54G | < 1e-05 | < 1e-05 | < 1e-05 | < 1e-05 | –
4 | G35U G37C U56G | < 1e-05 | < 1e-05 | < 1e-05 | – | –
5 | G37U A42U | < 1e-05 | < 1e-05 | – | – | < 1e-05
6 | G35A G40C A48G G62U G63C | < 1e-05 | – | – | – | –
7 | A39C C50A G60A C61U U65A | < 1e-05 | – | – | < 1e-05 | –
8 | G35A U47G | < 1e-05 | < 1e-05 | < 1e-05 | < 1e-05 | < 1e-05
9 | G37U U47A C68G | < 1e-05 | – | 9e-05 ± 3.5e-05 | < 1e-05 | –
10 | G37U G40U U46G U54C | < 1e-05 | < 1e-05 | < 1e-05 | < 1e-05 | < 1e-05
11 | G38U G40C G60A | < 1e-05 | – | – | – | –
12 | C34U U45C | < 1e-05 | – | < 1e-05 | < 1e-05 | < 1e-05
13 | G37C C50G C58G C67G | 0.00014 ± 3.9e-05 | 0.000349 ± 8.1e-05 | 6.52e-05 ± 2.2e-05 | 0.000593 ± 0.00017 | 0.00039 ± 0.00012
14 | A36C G60U C67A | < 1e-05 | – | – | < 1e-05 | –
15 | G35A A42G A52G C70U | < 1e-05 | – | < 1e-05 | – | < 1e-05
16 | G38C U45C U55C | < 1e-05 | – | < 1e-05 | – | –
17 | G35C A64G C67U | < 1e-05 | – | – | < 1e-05 | –
18 | A36G C61A G62U C67A | < 1e-05 | – | – | – | –
19 | A36U G66U | < 1e-05 | < 1e-05 | – | < 1e-05 | < 1e-05
20 | A36G C50U U57A | < 1e-05 | – | – | < 1e-05 | –
21 | G38C U65G G66A | < 1e-05 | < 1e-05 | < 1e-05 | – | < 1e-05
22 | A36U A48U G51U U65G | < 1e-05 | – | – | – | –

Row | Variant | self-cleavage kobs at 40 uM GlcN6P (glucosamine-6-phosphate [1]) [s⁻¹] | self-cleavage kobs at 640 uM GlcN6P (glucosamine-6-phosphate [2]) [s⁻¹] | self-cleavage kobs at 2500 uM GlcN6P (glucosamine-6-phosphate [3]) [s⁻¹] | self-cleavage kobs at 10000 uM GlcN6P (glucosamine-6-phosphate [4]) [s⁻¹] | self-cleavage kobs at 160 uM GlcN6P (glucosamine-6-phosphate [5]) [s⁻¹]
23 | A36U U55G | < 1e-05 | – | – | – | –
24 | G38U G41A U69G | < 1e-05 | < 1e-05 | < 1e-05 | – | < 1e-05
25 | G38A U56C | < 1e-05 | < 1e-05 | – | < 1e-05 | < 1e-05
26 | G35A A64U C71A | < 1e-05 | – | – | – | –
27 | G35C C68A | < 1e-05 | < 1e-05 | < 1e-05 | < 1e-05 | < 1e-05
28 | G35A A36C | < 1e-05 | < 1e-05 | < 1e-05 | – | < 1e-05
29 | G35A A36G | < 1e-05 | < 1e-05 | < 1e-05 | – | < 1e-05
30 | G38U A53G | < 1e-05 | < 1e-05 | – | – | < 1e-05
31 | A36U G37U G40A A52C C58U | < 1e-05 | – | – | – | –
32 | G37U G51C C71U | < 1e-05 | < 1e-05 | – | < 1e-05 | < 1e-05
33 | G37U G43C U65C | < 1e-05 | < 1e-05 | – | < 1e-05 | –
34 | A36U C68G C70U | 8.4e-05 ± 2.2e-05 | – | – | 0.000213 ± 4.7e-05 | –
35 | A36C G40U C67U | < 1e-05 | < 1e-05 | – | < 1e-05 | < 1e-05
36 | G35A A36G A48G A53G | < 1e-05 | – | – | < 1e-05 | –
37 | A36U C50G A64G C70G | 0.000457 ± 0.00012 | – | 0.000298 ± 0.00013 | 0.000194 ± 4.9e-05 | –
38 | G35C A39C | < 1e-05 | < 1e-05 | < 1e-05 | < 1e-05 | < 1e-05
39 | G37A G59U C61U | < 1e-05 | – | – | < 1e-05 | –
40 | G38A G41U | < 1e-05 | < 1e-05 | – | < 1e-05 | < 1e-05
41 | G38A G41A | < 1e-05 | < 1e-05 | < 1e-05 | < 1e-05 | < 1e-05
42 | G38A A39G | < 1e-05 | < 1e-05 | < 1e-05 | – | < 1e-05
43 | G35U G37U G63U U65C | < 1e-05 | – | – | – | –
44 | A36C G37A G59C C71U | < 1e-05 | – | < 1e-05 | < 1e-05 | –
